Consider five molecules from US20190389910A1 (ORUM THERAPEUTICS, published 2019).

The target of test [1] is human recombinant integrin αvβ5 (αv extracellular domain-acidic leucine zipper-His×6 with β5 extracellular domain-basic leucine zipper) (human) (UniProt P06756). As to the kind of experiment: BLI (Octet), antibody on AHC biosensor, integrin αvβ5 as analyte.
Test [2] has the same target. Nature of the test: BLI (Octet), antibody captured on anti-human IgG Fc (AHC) biosensor, integrin αvβ5 3.1-100 nM as analyte, divalent cations. For orientation: BLI is a label-free optical method that tracks binding on a fibre tip over time.
Test [3] deals with human recombinant integrin αvβ6 (αv extracellular domain-acidic leucine zipper-His×6 with β6 extracellular domain-basic leucine zipper) (human) (UniProt P06756). Nature of the test: BLI (Octet), antibody on AHC biosensor, integrin αvβ6 as analyte.
Chain of human recombinant integrin αvβ6 (αv extracellular domain-acidic leucine zipper-His×6 with β6 extracellular domain-basic leucine zipper) (human) (P06756 other isoform, or with tags, fused parts or gaps, chain 1 of 2): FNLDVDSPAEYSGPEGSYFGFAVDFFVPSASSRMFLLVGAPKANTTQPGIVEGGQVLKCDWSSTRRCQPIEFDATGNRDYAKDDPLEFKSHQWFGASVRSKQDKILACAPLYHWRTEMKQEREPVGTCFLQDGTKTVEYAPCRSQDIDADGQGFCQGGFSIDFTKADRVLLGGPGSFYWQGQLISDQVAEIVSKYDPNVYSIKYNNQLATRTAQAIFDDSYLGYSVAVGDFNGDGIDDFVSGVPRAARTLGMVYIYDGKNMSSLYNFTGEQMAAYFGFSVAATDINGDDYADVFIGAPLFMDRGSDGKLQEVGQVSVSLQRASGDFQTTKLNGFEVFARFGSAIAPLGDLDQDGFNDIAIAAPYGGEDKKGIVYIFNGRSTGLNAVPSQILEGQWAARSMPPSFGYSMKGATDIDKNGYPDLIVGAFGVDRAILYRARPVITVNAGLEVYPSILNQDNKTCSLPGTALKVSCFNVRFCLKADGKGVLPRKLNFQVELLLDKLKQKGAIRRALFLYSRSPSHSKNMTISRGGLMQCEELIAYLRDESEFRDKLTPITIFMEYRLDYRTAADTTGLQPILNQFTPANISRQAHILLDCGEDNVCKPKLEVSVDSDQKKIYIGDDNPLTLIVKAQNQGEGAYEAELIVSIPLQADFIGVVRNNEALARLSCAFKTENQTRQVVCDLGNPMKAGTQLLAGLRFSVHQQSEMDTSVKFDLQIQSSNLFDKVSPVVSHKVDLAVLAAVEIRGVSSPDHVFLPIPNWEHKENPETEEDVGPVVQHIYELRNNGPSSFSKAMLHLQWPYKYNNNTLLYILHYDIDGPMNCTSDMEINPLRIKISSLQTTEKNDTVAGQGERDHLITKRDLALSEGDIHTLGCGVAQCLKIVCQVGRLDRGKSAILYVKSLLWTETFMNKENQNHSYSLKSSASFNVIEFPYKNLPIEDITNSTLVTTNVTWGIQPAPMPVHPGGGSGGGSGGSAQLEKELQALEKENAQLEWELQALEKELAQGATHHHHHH
Chain of human recombinant integrin αvβ6 (αv extracellular domain-acidic leucine zipper-His×6 with β6 extracellular domain-basic leucine zipper) (human) (chain, as listed by the source, chain 2 of 2): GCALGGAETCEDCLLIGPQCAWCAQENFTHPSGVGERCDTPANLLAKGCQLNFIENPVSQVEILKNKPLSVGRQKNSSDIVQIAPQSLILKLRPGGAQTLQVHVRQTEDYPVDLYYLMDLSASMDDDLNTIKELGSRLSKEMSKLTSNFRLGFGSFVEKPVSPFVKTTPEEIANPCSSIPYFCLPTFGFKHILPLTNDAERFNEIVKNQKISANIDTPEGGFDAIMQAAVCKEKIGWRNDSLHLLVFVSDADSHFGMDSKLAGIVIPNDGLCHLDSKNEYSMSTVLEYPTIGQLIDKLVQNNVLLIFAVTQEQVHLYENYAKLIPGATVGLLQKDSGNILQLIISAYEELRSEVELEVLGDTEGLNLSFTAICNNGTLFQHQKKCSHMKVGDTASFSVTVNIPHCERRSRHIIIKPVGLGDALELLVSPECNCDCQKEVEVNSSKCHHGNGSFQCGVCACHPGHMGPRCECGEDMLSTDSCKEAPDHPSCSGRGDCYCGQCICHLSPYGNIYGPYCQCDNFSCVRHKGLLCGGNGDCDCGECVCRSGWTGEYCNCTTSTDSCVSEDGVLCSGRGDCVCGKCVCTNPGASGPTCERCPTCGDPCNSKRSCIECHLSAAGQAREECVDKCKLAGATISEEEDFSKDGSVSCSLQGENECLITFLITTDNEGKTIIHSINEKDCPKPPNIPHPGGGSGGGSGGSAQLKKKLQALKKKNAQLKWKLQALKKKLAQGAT
For test [4] the target is unchanged. As to the kind of experiment: BLI (Octet), antibody captured on anti-human IgG Fc (AHC) biosensor, integrin αvβ6 3.1-100 nM as analyte, divalent cations.
For test [5], the target named is heparan sulfate proteoglycan (HSPG) expressed on HeLa cells. Nature of the test: cell-based or functional assay.
The target in test [6] is T1, EpCAM (epithelial cell adhesion molecule) expressed on the cell surface of human tumor cells (human, UniProt P16422 24-314).
T1 construct: whole, on cells; also called cell surface EpCAM; EpCAM receptor
T1 sequence (looked up): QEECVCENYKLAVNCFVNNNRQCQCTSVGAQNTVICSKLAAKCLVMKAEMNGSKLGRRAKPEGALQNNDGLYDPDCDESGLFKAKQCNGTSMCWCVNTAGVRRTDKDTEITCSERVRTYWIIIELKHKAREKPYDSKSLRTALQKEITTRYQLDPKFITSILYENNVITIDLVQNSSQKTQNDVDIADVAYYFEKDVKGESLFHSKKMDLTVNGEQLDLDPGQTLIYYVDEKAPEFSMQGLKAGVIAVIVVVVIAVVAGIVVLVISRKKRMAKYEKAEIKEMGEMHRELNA
Nature of the test: flow cytometry on HCT116 and SW480 cells; 100 nM antibody with 300 IU/mL heparin, Alexa488 anti-human Fc. Here is the method:
Cell surface-binding levels of the indicated CTs, coincubated at 100 nM with 300 IU/mL heparin for 1 h at 4° C. with the indicated cells before analysis (lower panels). An isotype control is used as a negative control.
Then, each antibody was reacted with antibodies specific for human Fc to which Alexa488 (green fluorescence) was linked, at 4° C. for 30 min. After washing with PBS, the cells were analyzed by flow cytometry.

Chain of human recombinant integrin αvβ5 (αv extracellular domain-acidic leucine zipper-His×6 with β5 extracellular domain-basic leucine zipper) (human) (P06756 other isoform, or with tags, fused parts or gaps, chain 1 of 2): as the sequence (P06756 other isoform, or with tags, fused parts or gaps, chain 1 of 2) above
Chain of human recombinant integrin αvβ5 (αv extracellular domain-acidic leucine zipper-His×6 with β5 extracellular domain-basic leucine zipper) (human) (chain, as listed by the source, chain 2 of 2): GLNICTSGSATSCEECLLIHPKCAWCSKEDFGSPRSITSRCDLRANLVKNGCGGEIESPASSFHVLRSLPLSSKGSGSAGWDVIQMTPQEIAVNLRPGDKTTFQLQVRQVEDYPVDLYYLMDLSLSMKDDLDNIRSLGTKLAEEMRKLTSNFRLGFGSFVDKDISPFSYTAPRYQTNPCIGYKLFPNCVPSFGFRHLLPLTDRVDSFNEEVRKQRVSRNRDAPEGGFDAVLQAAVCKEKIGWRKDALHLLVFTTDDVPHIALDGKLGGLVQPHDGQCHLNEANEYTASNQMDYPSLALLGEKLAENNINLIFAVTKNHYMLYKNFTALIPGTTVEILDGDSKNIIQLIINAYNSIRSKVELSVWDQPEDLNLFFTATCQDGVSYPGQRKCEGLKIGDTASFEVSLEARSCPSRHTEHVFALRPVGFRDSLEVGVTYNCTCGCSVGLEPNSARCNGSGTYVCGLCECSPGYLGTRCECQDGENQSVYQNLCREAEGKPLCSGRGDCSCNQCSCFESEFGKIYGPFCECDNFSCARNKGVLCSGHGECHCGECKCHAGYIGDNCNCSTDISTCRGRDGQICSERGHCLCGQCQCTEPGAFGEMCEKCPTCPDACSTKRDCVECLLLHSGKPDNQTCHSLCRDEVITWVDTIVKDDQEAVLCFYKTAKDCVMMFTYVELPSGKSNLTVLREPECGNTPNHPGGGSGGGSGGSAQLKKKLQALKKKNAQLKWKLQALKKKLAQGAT

B1: 5#1-Ras03 (antibody, part only; not given: RT22 heavy chain, constant regions, V domains shown, not shown: another chain or arm of the molecule; a dimerising Fc or GST; large carriers; small tags and cut ends)
VL: LPSGACVVRGDTFQCVSVGMGSSSNDIQMTQSPSSLSASVGDRVTITCKSSQSLLNSRDGKNYLAWYQQKPGKAPKLLIYWASTRESGVPSRFSGSGSGTDFTLTISSLQPEDFATYFCQQYWYWMYTFGQGTKVEIK
modifications: chain 1: disulfide bond Cys6-Cys15 closes the 5#1 cyclic peptide
In general, Kd refers to the constant that tells how readily two partners part at equilibrium. In general, koff refers to the rate constant with which the complex falls apart. In general, kon refers to a measure of how fast the partners come together. As for B1, in test [1], the fold higher affinity than in4-Ras03 is 2 fold. In test [2], the equilibrium dissociation constant (Kd) stood at 1.13 nM, the koff came out at 6.39e-05 s⁻¹ and the kon was determined as 56700 M⁻¹ s⁻¹.

B2: 6#6-Ras03 (antibody, part only; not given: RT22 heavy chain, light constant, V domains shown, not shown: another chain or arm of the molecule; a dimerising Fc or GST)
VL: LGPLPCQTRGDLFSLCHYMGSSSNDIQMTQSPSSLSASVGDRVTITCKSSQSLLNSRDGKNYLAWYQQKPGKAPKLLIYWASTRESGVPSRFSGSGSGTDFTLTISSLQPEDFATYFCQQYWYWMYTFGQGTKVEIK
modifications: chain 1: disulfide bond Cys6-Cys16 closes the cyclic peptide
In the case of B2, the fold higher binding affinity than in4-Ras03 in test [3] was 12 fold. Moreover, in test [4], the Kd is 0.843 nM, the off-rate (koff) was determined as 0.000182 s⁻¹ and the kon came out at 216000 M⁻¹ s⁻¹.

B3: CT03e (antibody, V domains shown)
VH: EVQLVESGGGLVQPGGSLRLSCAASGYTFTSYVMHWVRQAPGKGLEWVSAINPYNDGNYYADSVKGRFTISRDNSRKTLYLQMNSLRAEDTAVYYCARGAYKRGYAMDYWGQGTTVTVSS
VL: DLVMTQSPSSLSASVGDRVTITCKSSQSLLNSRDGKNYLAWYQQKPGKAPKLLIYWASTRESGVPSRFSGSGSGTDFTLTISSLQPEDFATYFCQQYWYWMYTFGQGTKVEIKR
B3 displayed a fluorescence intensity of antibody located in the cytoplasm (confocal microscopy, HeLa cells, 1 µM, 6 h) in test [5] of 19.6%.

B4: CT03b (antibody, V domains shown)
VH: EVQLVESGGGLVQPGGSLRLSCAASGYTFTSYVMHWVRQAPGKGLEWVSAINPYNDGNYYADSVKGRFTISRDNSRKTLYLQMNSLRAEDTAVYYCARGAYKRGYAMDYWGQGTTVTVSS
VL: DLVMTQSPSSLSASVGDRVTITCKSSQSLLNSRDGNTYLAWYQQKPGKAPKLLIYWLSYRASGVPSRFSGSGSGTDFTLTISSLQPEDFATYFCQQYWYWMYTFGQGTKVEIKR
As to B4, the fluorescence intensity of antibody located in the cytoplasm (confocal microscopy, HeLa cells, 1 µM, 6 h) in test [5] was determined as 12.4%.

B5: CT05 (antibody, V domains shown)
VH: EVQLVESGGGLVQPGGSLRLSCAASGYTFTSYVMHWVRQAPGKGLEWVSAINPYNDGNYYADSVKGRFTISRDNSRKTLYLQMNSLRAEDTAVYYCARGAYKRGYAMDYWGQGTTVTVSS
VL: DIQMTQSPSSLSASVGDRVTITCKSSQSLLNSRDGKNYLAWYQQKPGKAPKLLIYDASNLETGVPSRFSGSGSGTDFTFTISSLQPEDIATYFCQQYWYWMYTFGGGTKVEIKR
notes: Intact IgG without a cyclic peptide; also called CT05 VL variant
In test [5], B5 displayed a fluorescence intensity of internalized antibody relative to TMab4-WYW (confocal microscopy, HeLa cells, 1 µM, 6 h) of 17.3%. Also, the binding result in test [6] is “no binding (tested: 100 nM)”.
